Experiments:
purified protein [1] = substrate: NC(=O)C1=CN([C@@H]2O[C@H](COP(=O)(O)OP(=O)(O)OC[C@H]3O[C@@H](n4cnc5c(N)ncnc54)[C@H](OP(=O)(O)O)[C@@H]3O)[C@@H](O)[C@H]2O)C=CC1; assay: purified protein; type: biochemical, Caenorhabditis elegans; settings: NADPH varied 10 µM to 1.5 mM, excess FAD, 25 mM sodium phosphate pH 8.5, 30 °C, varied: cofactor
purified protein [2] = substrate: N[C@@H](Cc1c[nH]c2ccccc12)C(=O)O; assay: purified protein; type: biochemical, Caenorhabditis elegans; settings: 0.5 mM NADPH, excess FAD, 0.04 µM FMO-2, 25 mM sodium phosphate pH 8.5, 0.5 mM DETAPAC, 30 °C

B1: FMO-2 (CeFMO-2) (Caenorhabditis elegans) (protein)
chain: MGNKRVAVIGAGASGLPSIRHGLLYGFDVTCFEASDDIGGLWRYKSHETNESSVMKTTVINTSKEMTAYSDFTPQENLANFMHNNEMLNYFKSYAEHHGLMKHIKLRHRVLNIERSKNYDNDGTWKVIYQTPEEKTLEEIFDGVLVCSGHHAIPHWPKPFPGQNEFKGRIVHSHDYKDHKGYEDKVVVVVGIGNSGIDVAVEQSRIAKQVYLVTRRGTWLIPKLETRGLPFDIIMNTRFFSLYKLFPQAMLNSLVEYRINQRIDHDLYGLKPAHRVFSAHPSLNDELPNRIANGTVRIKPNIKKFDGYAIHFEDGTIVPHVDEVVMSTGFSFEFNLIEHGKLVPVSENEVDLFKYMFPVATSDHNSLCIIGLIQPFGSIMPVSEQQARVFFANMVSGNNLIPKKSQMSEDVLNKKEAMAQQFVKSRRHTIQVDYIPYMDELAELIGCQVPLLRTLFTDPVLGLRLFFGPNAGYCYRLAGPHTWNGARNAILTIDQRVRMATTTKPEPTNYTVPLVISSIILLLVIYFVM
notes: purified FMO-2 protein purchased from GenScript; assayed with excess FAD
- Km (purified protein [1]): 2500 ± 1240 µM
- kcat (purified protein [1]): 264 ± 98 s⁻¹
- Km (purified protein [2]): 880 ± 430 µM
- kcat (purified protein [2]): 9.7 ± 1.5 s⁻¹

Reference: publication PMC9894935, “FMO rewires metabolism to promote longevity through tryptophan and one carbon metabolism in C. elegans” (Nature Communications, 2023)
